Measured values as given in US20260242735A1 (UNIVERSIT T BASEL, published 2026).
Each block holds one binder with its values, some of them ahead of it.

Tests used:
[1] = molecular target: human CD33 N20T (human, UniProt P20138 18-364); assay: flow cytometry, mutant on cells, IgG
[2] = molecular target: human CD33 P19D (human, UniProt P20138 18-364); assay: flow cytometry, mutant on cells, IgG
[3] = molecular target: human CD33 Q24L (human, UniProt P20138 18-364); assay: flow cytometry, mutant on cells, IgG
[4] = molecular target: human CD33 D18N (human, UniProt P20138 19-364); assay: flow cytometry, mutant on cells, IgG
[5] = molecular target: human CD33 T42P (human, UniProt P20138 18-364); assay: flow cytometry, mutant on cells, IgG
[6] = molecular target: human CD33 F44D (human, UniProt P20138 18-364); assay: flow cytometry, mutant on cells, IgG
[7] = molecular target: human CD33 W22G (human, UniProt P20138 18-364); assay: flow cytometry, mutant on cells, IgG
[8] = molecular target: human CD33 H45Y (human, UniProt P20138 18-364); assay: flow cytometry, mutant on cells, IgG
[9] = molecular target: human CD33 F21V (human, UniProt P20138 18-364); assay: flow cytometry, mutant on cells, IgG
[10] = molecular target: human CD33 N20G (human, UniProt P20138 18-364); assay: flow cytometry, mutant on cells, IgG
[11] = molecular target: human CD33 I47G (human, UniProt P20138 18-364); assay: flow cytometry, mutant on cells, IgG
[12] = molecular target: human CD33 W22Y (human, UniProt P20138 18-364); assay: flow cytometry, mutant on cells, IgG
[13] = molecular target: human CD33 W22S (human, UniProt P20138 18-364); assay: flow cytometry, mutant on cells, IgG
[14] = molecular target: human CD33 F21H (human, UniProt P20138 18-364); assay: flow cytometry, mutant on cells, IgG
[15] = molecular target: human CD33 N20V (human, UniProt P20138 18-364); assay: flow cytometry, mutant on cells, IgG
[16] = molecular target: human CD33 W22L (human, UniProt P20138 18-364); assay: flow cytometry, mutant on cells, IgG
[17] = molecular target: human CD33 I47T (human, UniProt P20138 18-364); assay: flow cytometry, mutant on cells, IgG
[18] = molecular target: human CD33 Q24R (human, UniProt P20138 18-364); assay: flow cytometry, mutant on cells, IgG
[19] = molecular target: human CD33 P46H (human, UniProt P20138 18-364); assay: flow cytometry, mutant on cells, IgG
[20] = molecular target: human CD33 variant Y127H (human, UniProt P20138 18-364); assay: flow cytometry, IgG on cells expressing the mutant
Protocol: (§1) An alanine scan on human CD33 was performed to the determine the residues on CD33 that are involved in binding to the antibodies investigated. […] Briefly, a mutation library of CD33 was created by high-throughput, site-directed mutagenesis. Each residue was individually mutated to alanine, with alanine codons mutated to serine. The mutant library was arrayed in 384-well microplates and transiently transfected into HEK293-T. Following transfection, cells were incubated with the indicated antibodies (IgG or Fab) at concentrations pre-determined using an independent immunofluorescence titration curve on wild type CD33. […] Binding of each antibody to each mutant clone was determined in duplicates. For each point, background fluorescence was subtracted from the raw data, which were then normalized to antibody reactivity with wild type CD33.
(§2) Antibodies were screened for binding to the human CD33 variants in IgG format. […] For each mutation, background fluorescence was subtracted from the raw data, which were then normalized to antibody reactivity with wild-type CD33.

[21] = molecular target: human CD33 variant Y49D (human, UniProt P20138 18-364); assay: flow cytometry, IgG on cells expressing the mutant
Protocol: as §1, §2

[22] = molecular target: human CD33 variant R122F (human, UniProt P20138 18-364); assay: flow cytometry, IgG on cells expressing the mutant
Protocol: as §1, §2

[23] = molecular target: human CD33 variant P48T (human, UniProt P20138 18-364); assay: flow cytometry, IgG on cells expressing the mutant
Protocol: as §1, §2

[24] = molecular target: human CD33 variant P48V (human, UniProt P20138 18-364); assay: flow cytometry, IgG on cells expressing the mutant
Protocol: as §1, §2

[25] = molecular target: human CD33 variant P48L (human, UniProt P20138 18-364); assay: flow cytometry, IgG on cells expressing the mutant
Protocol: as §1, §2

[26] = molecular target: human CD33 variant R122I (human, UniProt P20138 18-364); assay: flow cytometry, IgG on cells expressing the mutant
Protocol: as §1, §2

[27] = molecular target: human CD33 variant P48M (human, UniProt P20138 18-364); assay: flow cytometry, IgG on cells expressing the mutant
Protocol: as §1, §2

[28] = molecular target: human CD33 variant Y49R (human, UniProt P20138 18-364); assay: flow cytometry, IgG on cells expressing the mutant
Protocol: as §1, §2

[29] = molecular target: human CD33 variant P48F (human, UniProt P20138 18-364); assay: flow cytometry, IgG on cells expressing the mutant
Protocol: as §1, §2

[30] = molecular target: human CD33 variant Y49C (human, UniProt P20138 18-364); assay: flow cytometry, IgG on cells expressing the mutant
Protocol: as §1, §2

[31] = molecular target: human CD33 variant R122G (human, UniProt P20138 18-364); assay: flow cytometry, IgG on cells expressing the mutant
Protocol: as §1, §2

[32] = molecular target: human CD33 variant Y49P (human, UniProt P20138 18-364); assay: flow cytometry, IgG on cells expressing the mutant
Protocol: as §1, §2

[33] = molecular target: human CD33 variant P48G (human, UniProt P20138 18-364); assay: flow cytometry, IgG on cells expressing the mutant
Protocol: as §1, §2

[34] = molecular target: human CD33 variant I47E (human, UniProt P20138 18-364); assay: flow cytometry, IgG on cells expressing the mutant
Protocol: as §1, §2

[35] = molecular target: human CD33 variant R122S (human, UniProt P20138 18-364); assay: flow cytometry, IgG on cells expressing the mutant
Protocol: as §1, §2

[36] = molecular target: human CD33 variant Y49G (human, UniProt P20138 18-364); assay: flow cytometry, IgG on cells expressing the mutant
Protocol: as §1, §2

[37] = molecular target: human CD33 variant D51N (human, UniProt P20138 18-364); assay: flow cytometry, IgG on cells expressing the mutant
Protocol: as §1, §2

Sequence of human CD33 T42P (P20138 18-364 T42P limits assumed): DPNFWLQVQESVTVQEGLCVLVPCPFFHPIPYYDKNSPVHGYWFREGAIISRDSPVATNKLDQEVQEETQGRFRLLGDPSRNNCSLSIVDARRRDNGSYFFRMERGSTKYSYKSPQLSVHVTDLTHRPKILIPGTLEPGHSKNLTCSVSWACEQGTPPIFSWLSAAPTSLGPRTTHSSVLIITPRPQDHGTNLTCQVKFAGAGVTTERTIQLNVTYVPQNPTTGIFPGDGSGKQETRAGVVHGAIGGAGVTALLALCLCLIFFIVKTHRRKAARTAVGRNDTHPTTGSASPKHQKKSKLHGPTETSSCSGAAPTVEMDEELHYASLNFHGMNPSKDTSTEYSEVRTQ
Sequence of human CD33 W22S (P20138 18-364 W22S limits assumed): as the sequence (P20138 18-364 T42P limits assumed) above, with W5S, P25T counted along it
Sequence of human CD33 D18N (P20138 18-364 D18N limits assumed): as the sequence (P20138 18-364 T42P limits assumed) above, with D1N, P25T counted along it
Sequence of human CD33 I47T (P20138 18-364 I47T limits assumed): as the sequence (P20138 18-364 T42P limits assumed) above, with P25T, I30T counted along it
Sequence of human CD33 F44D (P20138 18-364 F44D limits assumed): as the sequence (P20138 18-364 T42P limits assumed) above, with P25T, F27D counted along it
Sequence of human CD33 Q24L (P20138 18-364 Q24L limits assumed): as the sequence (P20138 18-364 T42P limits assumed) above, with Q7L, P25T counted along it
Sequence of human CD33 P46H (P20138 18-364 P46H limits assumed): as the sequence (P20138 18-364 T42P limits assumed) above, with P25T, P29H counted along it
Sequence of human CD33 W22Y (P20138 18-364 W22Y limits assumed): as the sequence (P20138 18-364 T42P limits assumed) above, with W5Y, P25T counted along it
Sequence of human CD33 H45Y (P20138 18-364 H45Y limits assumed): as the sequence (P20138 18-364 T42P limits assumed) above, with P25T, H28Y counted along it
Sequence of human CD33 W22L (P20138 18-364 W22L limits assumed): as the sequence (P20138 18-364 T42P limits assumed) above, with W5L, P25T counted along it
Sequence of human CD33 F21H (P20138 18-364 F21H limits assumed): as the sequence (P20138 18-364 T42P limits assumed) above, with F4H, P25T counted along it
Sequence of human CD33 N20V (P20138 18-364 N20V limits assumed): as the sequence (P20138 18-364 T42P limits assumed) above, with N3V, P25T counted along it
Sequence of human CD33 W22G (P20138 18-364 W22G limits assumed): as the sequence (P20138 18-364 T42P limits assumed) above, with W5G, P25T counted along it
Sequence of human CD33 Q24R (P20138 18-364 Q24R limits assumed): as the sequence (P20138 18-364 T42P limits assumed) above, with Q7R, P25T counted along it

Mean % WT Binding [1]: 6.9 % WT binding | Mean % WT Binding [2]: 2.6 % WT binding | Mean % WT Binding [3]: 80.9 % WT binding | Mean % WT Binding [4]: 69.6 % WT binding | Mean % WT Binding [5]: 14.6 % WT binding | Mean % WT Binding [6]: 98.9 % WT binding | Mean % WT Binding [7]: 89.6 % WT binding | Mean % WT Binding [8]: 80.3 % WT binding | Mean % WT Binding [9]: 1.5 % WT binding | Mean % WT Binding [10]: 5.1 % WT binding | Mean % WT Binding [11]: 105 % WT binding | Mean % WT Binding [12]: 98 % WT binding | Mean % WT Binding [13]: 74.3 % WT binding | Mean % WT Binding [14]: 20.6 % WT binding | Mean % WT Binding [15]: 4.2 % WT binding | Mean % WT Binding [16]: 45.8 % WT binding | Mean % WT Binding [17]: 97.2 % WT binding | Mean % WT Binding [18]: 95.1 % WT binding | Mean % WT Binding [19]: 0.7 % WT binding
B1: Refmab #1 (antibody, human IgG1, V domains shown)
VH: EVQLVQSGAEVKKPGSSVKVSCKASGYTITDSNIHWVRQAPGQSLEWIGYIYPYNGGTDYNQKFKNRATLTVDNPTNTAYMELSSLRSEDTAFYYCVNGNPWLAYWGQGTLVTVSS
VL: DIQLTQSPSTLSASVGDRVTITCRASESLDNYGIRFLTWFQQKPGKAPKLLMYAASNQGSGVPSRFSGSGSGTEFTLTISSLQPDDFATYYCQQTKEVPWSFGQGTKVEVK
notes: Tested in IgG format; human IgG1 (Absolute Antibody hP67.6, Cat. No. Ab00283-10.0); also called hP67.6

Mean % WT Binding [20]: 97.1 % of WT | Mean % WT Binding [21]: 93.4 % of WT | Mean % WT Binding [22]: 110 % of WT | Mean % WT Binding [23]: 106 % of WT | Mean % WT Binding [24]: 121 % of WT | Mean % WT Binding [25]: 102 % of WT | Mean % WT Binding [26]: 110 % of WT | Mean % WT Binding [27]: 110 % of WT | Mean % WT Binding [28]: 87.1 % of WT | Mean % WT Binding [29]: 94.6 % of WT | Mean % WT Binding [30]: 67.2 % of WT | Mean % WT Binding [31]: 109 % of WT | Mean % WT Binding [32]: 92.5 % of WT | Mean % WT Binding [33]: 95 % of WT | Mean % WT Binding [34]: 101 % of WT | Mean % WT Binding [35]: 111 % of WT | Mean % WT Binding [36]: 107 % of WT | Mean % WT Binding [37]: 99 % of WT
B2: Refmab #1 (antibody, human IgG1, V domains shown)
VH: B1 VH
VL: B1 VL
notes: as for B1

Mean % WT Binding [1]: 2.2 % WT binding | Mean % WT Binding [2]: 0.6 % WT binding | Mean % WT Binding [3]: 11.8 % WT binding | Mean % WT Binding [4]: 71.5 % WT binding | Mean % WT Binding [5]: 18.6 % WT binding | Mean % WT Binding [6]: 1.2 % WT binding | Mean % WT Binding [7]: 9 % WT binding | Mean % WT Binding [8]: 4 % WT binding | Mean % WT Binding [9]: 0.7 % WT binding | Mean % WT Binding [10]: 3.6 % WT binding | Mean % WT Binding [11]: 107 % WT binding | Mean % WT Binding [12]: 11.5 % WT binding | Mean % WT Binding [13]: 1.4 % WT binding | Mean % WT Binding [14]: 1.4 % WT binding | Mean % WT Binding [15]: 0.5 % WT binding | Mean % WT Binding [16]: 1.5 % WT binding | Mean % WT Binding [17]: 72.4 % WT binding | Mean % WT Binding [18]: 74.6 % WT binding | Mean % WT Binding [19]: 0.5 % WT binding
B3: Refmab #3 (antibody, human IgG1, V domains shown)
VH: QVQLVQSGAEVKKPGSSVKVSCKASGYTFTDYNMHWVRQAPGQGLEWIGYIYPYNGGTGYNQKFKSKATITADESTNTAYMELSSLRSEDTAVYYCARGRPAMDYWGQGTLVTVSS
VL: DIQMTQSPSSLSASVGDRVTITCRASESVDNYGISFMNWFQQKPGKAPKLLIYAASNQGSGVPSRFSGSGSGTDFTLTISSLQPDDFATYYCQQSKEVPWTFGQGTKVEIK
notes: Tested in IgG format; human IgG1 Fc silent (PG-LALA)
